# Results reported in patent publication US20100158968A1.
# Experiments:
# [1] = molecular target: PKCδ (h) (protein kinase C) (human), Q05655; assay: cell-based or functional assay
# [2] = molecular target: mitogen-activated protein kinase-activated protein kinase 2 (human MK2) (human), P49137; assay: kinase inhibition, radiometric assay; details: modification not given
# Sequence of mitogen-activated protein kinase-activated protein kinase 2 (human MK2) (human), P49137 (P49137 46-400): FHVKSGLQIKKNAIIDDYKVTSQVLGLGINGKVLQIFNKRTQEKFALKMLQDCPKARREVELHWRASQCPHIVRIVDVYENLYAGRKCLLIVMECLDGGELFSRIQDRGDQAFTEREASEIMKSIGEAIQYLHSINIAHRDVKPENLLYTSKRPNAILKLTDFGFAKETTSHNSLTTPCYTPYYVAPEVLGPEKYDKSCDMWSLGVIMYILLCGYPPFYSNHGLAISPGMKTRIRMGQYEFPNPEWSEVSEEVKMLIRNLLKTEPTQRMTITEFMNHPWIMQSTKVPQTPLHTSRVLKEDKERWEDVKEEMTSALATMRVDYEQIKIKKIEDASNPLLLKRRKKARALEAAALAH
# Sequence of PKCδ (h) (protein kinase C) (human), Q05655 (Q05655 whole entry, stated change not applied): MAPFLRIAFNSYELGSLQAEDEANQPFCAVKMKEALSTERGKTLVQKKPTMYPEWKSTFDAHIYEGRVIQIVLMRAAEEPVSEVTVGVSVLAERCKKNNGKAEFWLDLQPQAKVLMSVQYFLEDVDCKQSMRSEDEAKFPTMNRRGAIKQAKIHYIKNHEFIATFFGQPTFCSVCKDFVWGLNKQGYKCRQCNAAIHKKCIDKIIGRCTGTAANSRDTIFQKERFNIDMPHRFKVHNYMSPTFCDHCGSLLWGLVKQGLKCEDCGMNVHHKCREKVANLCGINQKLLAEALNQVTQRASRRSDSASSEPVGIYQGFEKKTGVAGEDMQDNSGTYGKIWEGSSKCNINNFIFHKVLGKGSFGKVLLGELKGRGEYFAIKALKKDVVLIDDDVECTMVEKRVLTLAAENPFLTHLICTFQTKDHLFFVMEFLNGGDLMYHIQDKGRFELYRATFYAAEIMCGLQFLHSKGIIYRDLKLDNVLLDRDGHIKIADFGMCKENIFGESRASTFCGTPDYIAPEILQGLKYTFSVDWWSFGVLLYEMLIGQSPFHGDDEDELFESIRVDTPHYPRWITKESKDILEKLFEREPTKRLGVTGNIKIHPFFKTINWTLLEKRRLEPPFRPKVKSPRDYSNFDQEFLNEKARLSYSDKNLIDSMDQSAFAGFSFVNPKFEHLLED
binder,measurement,setting,value
YARAAARQARALNRQLGVAA,"Kinase Activity, peptide at 300 µM, radiometric assay",[1],105%
YARAAARQARAKALNRQLAVA,IC50,[2],18.9 µM
KAFAKLAARLYRLARQLGVAA,"Kinase Activity, peptide at 100 µM, radiometric assay",[1],24%
YARAAARQARAKALARQLAVA,IC50,[2],28.4 µM
WLRRIKAWLRRIKALNRQLGVAA,"Kinase Activity, peptide at 30 µM, radiometric assay",[1],11%
same,IC50,[2],0.737 µM
FAKLAARLYRLARQLGVAA,"Kinase Activity, peptide at 100 µM, radiometric assay",[1],40%
YARAAARQARALARQLGVAA,"Kinase Activity, peptide at 300 µM, radiometric assay",[1],101%
FAKLAARLYRKALARQLGVAA,IC50,[2],1.77 µM
